{"source": "the RNAGym collection of RNA variant scans (doi:10.1093/molbev/msab373)", "parents": {"B1": {"name": "Azoarcus group I ribozyme (parent)", "chain": "GUGCCUUGCGCCGGGAAACCACGCAAGGGAUGGUGUCAAAUUCGGCGAAACCUAAGCGCCCGCCCGGGCGUAUGGCAACGCCGAGCCAAGCUUCGGCGCCUGCGCCGAUGAAGGUGUAGAGACUAGACGGCACCCACCUAAGGCAAACGCUAUGGUGAAGGCAUAGUCCAGGGAGUGGCGAAAGUCACACAAACCGG"}}, "data": [{"variants_of": "B1", "assay": "reverse-splicing fitness (ratio to wild type); higher = more active; in vitro selection; Mg2+ level not given", "in_short": "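An in vitro group I ribozyme library with randomized positions was T7-transcribed and gel-purified. In triplicate, 10 pmol RNA in EPPS pH 7.5 was reacted with 50 pmoles of a 30-nt RNA substrate for 1 h at 37 °C across several added MgCl2 levels (1–48 mM), then stopped with EDTA. Products were reverse transcribed from a substrate-complementary primer, PCR-amplified and sequenced (HiSeq 4000). Fitness is a variant's read proportion after selection over that before, normalised to wild type.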", "values": [{"variant": "A111U A120U A145C C150G C169U U176G", "reverse-splicing fitness": 0.00228}, {"variant": "A111U A120U A145C C150G C169U U176A", "reverse-splicing fitness": 0.00301}, {"variant": "A111U A120G A145U C169U U176A", "reverse-splicing fitness": 0.0488}, {"variant": "A111U A120G A145U C169U U176G", "reverse-splicing fitness": 0.00682}, {"variant": "A111U A120G A145U C169U U176C", "reverse-splicing fitness": 0.0495}, {"variant": "A111U A120G A145U C150G C169U U176G", "reverse-splicing fitness": 0.00433}, {"variant": "A111U A120G A145U C150G C169U U176A", "reverse-splicing fitness": 0.0147}, {"variant": "A111U A120G A145U C150G C169U U176C", "reverse-splicing fitness": 0.0151}, {"variant": "A111U A120G A145U C150U C169A", "reverse-splicing fitness": 0.0657}, {"variant": "A111U A120G A145U C150U C169U", "reverse-splicing fitness": 0.105}, {"variant": "A111U A120G A145U C150U C169G", "reverse-splicing fitness": 0.129}, {"variant": "A111U A120G A145G C150U C169A U176G", "reverse-splicing fitness": 0.00525}, {"variant": "A111U A120G A145G C150U C169A U176A", "reverse-splicing fitness": 0.0224}, {"variant": "A111U A120G A145G C150U C169A U176C", "reverse-splicing fitness": 0.0274}, {"variant": "A111U A120G A145C C150G C169G U176C", "reverse-splicing fitness": 0.00636}, {"variant": "A111U A120G A145C C150G C169G U176G", "reverse-splicing fitness": 0.00359}, {"variant": "A111U A120G A145C C150G C169G U176A", "reverse-splicing fitness": 0.00926}, {"variant": "A111U A120G A145U C150U C169U U176A", "reverse-splicing fitness": 0.0396}, {"variant": "A111U A120G A145U C150U C169U U176C", "reverse-splicing fitness": 0.0395}, {"variant": "A111U A120G A145U C150U C169U U176G", "reverse-splicing fitness": 0.0055}, {"variant": "A111U A120G C150G C169G U176C", "reverse-splicing fitness": 0.00471}, {"variant": "A111U A120G C150G C169G U176G", "reverse-splicing fitness": 0.00442}, {"variant": "A111U A120G C150G C169G U176A", "reverse-splicing fitness": 0.00621}, {"variant": "A111U A120G A145C C169A U176A", "reverse-splicing fitness": 0.0217}, {"variant": "A111U A120G A145C C169A U176G", "reverse-splicing fitness": 0.00414}, {"variant": "A111U A120G A145C C169A U176C", "reverse-splicing fitness": 0.0194}, {"variant": "A111U A120G A145G C150U C169G U176C", "reverse-splicing fitness": 0.0424}, {"variant": "A111U A120G A145G C150U C169G U176A", "reverse-splicing fitness": 0.0272}, {"variant": "A111U A120G A145G C150U C169G U176G", "reverse-splicing fitness": 0.00498}, {"variant": "A111U A120U A145C C150A C169G U176A", "reverse-splicing fitness": 0.00297}, {"variant": "A111U A120U A145C C150A C169G U176C", "reverse-splicing fitness": 0.00308}, {"variant": "A111U A120U A145C C150A C169G U176G", "reverse-splicing fitness": 0.00184}, {"variant": "A111U A120G A145G C150A C169A U176A", "reverse-splicing fitness": 0.0188}, {"variant": "A111U A120G A145G C150A C169A U176C", "reverse-splicing fitness": 0.0255}, {"variant": "A111U A120G A145G C150A C169A U176G", "reverse-splicing fitness": 0.00599}, {"variant": "A111U A120C C169U U176A", "reverse-splicing fitness": 0.0322}, {"variant": "A111U A120C C169U U176G", "reverse-splicing fitness": 0.00626}, {"variant": "A111U A120C C169U U176C", "reverse-splicing fitness": 0.0473}, {"variant": "A111U A120U A145C C150U C169G U176C", "reverse-splicing fitness": 0.00276}, {"variant": "A111U A120U A145C C150U C169G U176A", "reverse-splicing fitness": 0.0032}, {"variant": "A111U A120U A145C C150U C169G U176G", "reverse-splicing fitness": 0.00222}, {"variant": "A111U A120U A145C C150G C169G U176A", "reverse-splicing fitness": 0.00251}, {"variant": "A111U A120U A145C C150G C169G U176G", "reverse-splicing fitness": 0.00228}, {"variant": "A111U A120U A145C C150G C169G U176C", "reverse-splicing fitness": 0.00254}, {"variant": "A111U A120U A145C C150A C169U U176G", "reverse-splicing fitness": 0.00241}, {"variant": "A111U A120U A145C C150A C169U U176C", "reverse-splicing fitness": 0.00285}, {"variant": "A111U A120U A145C C150A C169U U176A", "reverse-splicing fitness": 0.00285}, {"variant": "A111U A120G C150U U176A", "reverse-splicing fitness": 0.0266}, {"variant": "A111U A120G C150U U176C", "reverse-splicing fitness": 0.0413}, {"variant": "A111U A120G C150U U176G", "reverse-splicing fitness": 0.00616}, {"variant": "A111U A120G A145U C150A C169U U176G", "reverse-splicing fitness": 0.0052}, {"variant": "A111U A120G A145U C150A C169U U176C", "reverse-splicing fitness": 0.0173}, {"variant": "A111U A120G A145U C150A C169U U176A", "reverse-splicing fitness": 0.0271}, {"variant": "A111U A120G A145C C169G U176C", "reverse-splicing fitness": 0.0387}, {"variant": "A111U A120G A145C C169G U176A", "reverse-splicing fitness": 0.0371}, {"variant": "A111U A120G A145C C169G U176G", "reverse-splicing fitness": 0.00442}, {"variant": "A111U A120G A145C", "reverse-splicing fitness": 0.159}, {"variant": "A111U A120G A145U", "reverse-splicing fitness": 0.172}, {"variant": "A111U A120G A145G", "reverse-splicing fitness": 0.175}, {"variant": "A111U A120G A145C C150G U176A", "reverse-splicing fitness": 0.00783}, {"variant": "A111U A120G A145C C150G U176C", "reverse-splicing fitness": 0.0143}, {"variant": "A111U A120G A145C C150G U176G", "reverse-splicing fitness": 0.00302}, {"variant": "A111U A120U A145C C150A C169A U176C", "reverse-splicing fitness": 0.00287}, {"variant": "A111U A120U A145C C150A C169A U176G", "reverse-splicing fitness": 0.00243}, {"variant": "A111U A120U A145C C150A C169A U176A", "reverse-splicing fitness": 0.00272}, {"variant": "A111U A120U", "reverse-splicing fitness": 0.634}, {"variant": "A111U A120G", "reverse-splicing fitness": 0.174}, {"variant": "A111U A120G A145G U176A", "reverse-splicing fitness": 0.0417}, {"variant": "A111U A120G A145G U176G", "reverse-splicing fitness": 0.00558}, {"variant": "A111U A120G A145G U176C", "reverse-splicing fitness": 0.0543}, {"variant": "A111U A120G A145G C150G C169G U176C", "reverse-splicing fitness": 0.0108}, {"variant": "A111U A120G A145G C150G C169G U176G", "reverse-splicing fitness": 0.00518}, {"variant": "A111U A120G A145G C150G C169G U176A", "reverse-splicing fitness": 0.00971}, {"variant": "A111U A120U A145C C150A U176C", "reverse-splicing fitness": 0.00836}, {"variant": "A111U A120U A145C C150A U176G", "reverse-splicing fitness": 0.00552}, {"variant": "A111U A120U A145C C150A U176A", "reverse-splicing fitness": 0.012}, {"variant": "A111U A120G C150U", "reverse-splicing fitness": 0.0899}, {"variant": "A111U A120G C150A", "reverse-splicing fitness": 0.02}, {"variant": "A111U A120G C150G", "reverse-splicing fitness": 0.0154}, {"variant": "A111U A120G C150G U176C", "reverse-splicing fitness": 0.0112}, {"variant": "A111U A120G C150G U176A", "reverse-splicing fitness": 0.00753}, {"variant": "A111U A120G C150G U176G", "reverse-splicing fitness": 0.00275}, {"variant": "A111U A120G C169A", "reverse-splicing fitness": 0.116}, {"variant": "A111U A120G C169G", "reverse-splicing fitness": 0.218}]}]}
